Source: US20110293610A1 (published 2011)

How the values were obtained:
TRAIL = target: T1, TRAIL (human, UniProt P50591 114-281); assay: phage ELISA
T1 construct: also called TNF-related apoptosis inducing ligand

Fas ligand = target: T2, Fas ligand (human, UniProt P48023 134-281, limits assumed); assay: phage ELISA
T2 sequence (looked up): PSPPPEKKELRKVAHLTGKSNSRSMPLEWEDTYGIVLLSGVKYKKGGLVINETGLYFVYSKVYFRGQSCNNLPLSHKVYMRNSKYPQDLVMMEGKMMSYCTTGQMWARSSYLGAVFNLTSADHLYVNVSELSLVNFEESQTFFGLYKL

[1] = target: T3, membrane-bound B Lymphocyte Stimulator on U937 plasma membrane preparations (human, UniProt Q9Y275 1-285); assay: phage ELISA
T3 construct: Natural protein in plasma membrane fractions of the human cell line U937 coated on ELISA plates; also called U937 plasma membranes; U937 membranes

TNF-alpha = target: T4, TNF-alpha (human, UniProt P01375 77-233); assay: phage ELISA
T4 construct: also called TNFα; TNF-α

TNF-beta = target: T5, TNF-beta (human, UniProt P01374 35-205); assay: phage ELISA
T5 construct: also called TNFβ; Tumour Necrosis Factor-beta
T5 sequence (looked up): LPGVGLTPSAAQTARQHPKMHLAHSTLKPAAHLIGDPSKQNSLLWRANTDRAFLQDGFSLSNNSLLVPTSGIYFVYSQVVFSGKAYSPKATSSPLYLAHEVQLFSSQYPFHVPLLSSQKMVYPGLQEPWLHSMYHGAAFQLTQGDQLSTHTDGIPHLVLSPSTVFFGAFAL

[2] = target: T6, B Lymphocyte Stimulator, soluble form (human) (human, UniProt Q9Y275 134-285, biotinylated with NHS-biotin where used as biotinylated B Lymphocyte Stimulator); assay: phage competition ELISA
T6 construct: Coated on plastic, captured on streptavidin plates, amine-coupled to a CM5 chip or free in solution, depending on the assay; also called BLyS; immobilized B Lymphocyte Stimulator

B1: I008A09 (scFv)
scFv: GVQLVQSGGGVVQPGGSLRLSCAASGFTFSSYGMHWVRQAPGKGLEWVAVISYDGSNKYYADSVKGRFTISRDNSKNTLYLQMNSLRAEDTAVYYCARDREAYYDILTGYYLYYYYMDVWGRGTTVTVSSGGGGSGGGGSGGGGSQSVLTQPASVSGSPGQSITISCTGTSSDVGGYNYVSWYQQHPGKAPKLMIYEGSKRPSGVSNRFSGSKSGNTASLTISGLQAEDEADYYCSSYTTGSTRVFGGGTKLTVLG
- binding result (TRAIL): no binding
- binding result (Fas ligand): no binding
- binding result [1]: binds
- binding result (TNF-alpha): no binding
- binding result (TNF-beta): no binding
- binding result [2]: binds

B2: I022D01 (scFv)
scFv: EVNLRESGGGVDQPGRSLRLSCAASGFTFSSYGMHWVRQAPGKGLEWVAVISYDGSNKYYADSVKGRFTISRDNSKNTLYLQMNSLRAEDTAVYYCAKDGYYDILTGYSYYGMDVWGQGPMVAVSSGGGGSGGGGSGGGGSSELTQDPAVSVALGQTVRITCQGDSLRSYYTNWFQQKPGQAPLLVVYAKNKRPSGIPDRFSGSSSGNTASLTITGAQAEDEADYYCNSRDSSGNHVVFGGGTKLTVLG
- binding result (TRAIL): no binding
- binding result (Fas ligand): no binding
- binding result [1]: binds
- binding result (TNF-alpha): no binding
- binding result (TNF-beta): no binding
- binding result [2]: binds

B3: I016F02 (scFv)
scFv: GVQLVESGAEVKKPGASVKVSCRTSGYTFTSNSFSWVRQAPGQGLEWMGGIIPIFGTANYAQKLQGRVTITADELTRTVYMDLSSLRSEDTAVYYCATGMGDHYGMDVWGRGTLVTVSSGGGGSGGGGSGGGGSQSVLTQPASVSGSPGQSITISCTGTSSDVGGYNYVSWYQQHPGKAPKLMIYEGSKRPSGVSNRFSGSKSGNTASLTISGLQAEDEADYYCSSYTTRSTRVFGGGTKLTVLG
- binding result (TRAIL): no binding
- binding result (Fas ligand): no binding
- binding result [1]: binds
- binding result (TNF-alpha): no binding
- binding result (TNF-beta): no binding
- binding result [2]: binds

B4: I007B03 (scFv)
scFv: GVQLQQSGAEVKKPGSSVKVSCKASGGTFNTSGITWVRQAPGQGLEWMGWMNPNTGDTAYAQEFQGRVIMTRDTSISTAYMELSSLRSEDTAVYYCARDGSYDILTGYYIDNYMDVWGQGTMVTVSSGGGGSGGGGSGGGGSQSVLTQPASVSGSPGQSITISCTGTSSDVGGYNYVSWYQQHPGKAPKLMIYEGSKRPSGVSNRFSGSKSGNTASLTISGLQAEDEADYYCSSYTTRSTRVFGGGTKLTVLG
- binding result (TRAIL): no binding
- binding result (Fas ligand): no binding
- binding result [1]: binds
- binding result (TNF-alpha): no binding
- binding result (TNF-beta): no binding
- binding result [2]: binds

B5: I017D10 (scFv)
scFv: RVQLVQSGAEVKKPGASVKVSCKASGYTFTSDHISWVRQAPGQGLEWMGWISPHHGKTNYAQKLQGRVTMTTDTSTSTAYMELRSLRSDDTAVYYCARVQMDSEYYDLLTGINVGPYYFDYWGKGTLVTVSSGGGGSGGGGSGGGGSSELTQDPAVSVALGQTVRITCQGDSLRSYYASWYQQKPGQAPVLVIYGKNNRPSGIPDRFSGSSSGNTASLTITGAQAEDEADYYCNSRDSSGNHVVFGGGTKLTVLG
- binding result (TRAIL): no binding
- binding result (Fas ligand): no binding
- binding result [1]: binds
- binding result (TNF-alpha): no binding
- binding result (TNF-beta): no binding
- binding result [2]: binds

B6: I029F11 (scFv)
scFv: QVQLVQSRAEVKRPGASVKVSCKASGYRFGSYGITWVRQAPGQGLEWMGWISTRYGDTKSAQKVEGRVTLTTDTSTSTAYMELRSLRSDDTAVYYCARDGSYDILTGYYIDNYMDVWGRGTLVTVSSGGGGSGGGGSGGGGSQSVLTQPPSASGTPGQRVTISCSGSSSNIGSNTVNWYQRLPGAAPQLLIYNNDQRPSGIPDRFSGSKSGTSGSLVISGLQSEDEADYYCASWDDSLNGRVFGGGTKLTVLG
- binding result (TRAIL): no binding
- binding result (Fas ligand): no binding
- binding result [1]: binds
- binding result (TNF-alpha): no binding
- binding result (TNF-beta): no binding
- binding result [2]: binds

B7: I061H01 (scFv)
scFv: QVQLVQSGGGLVKPGGSLRLSCAASGFTFSNAWMSWVRQAPGKGLQWVGRIKSKTDGGTTDYAAPVKGRFTISRDDSKNTLYLQMNSLKTEDTAVYYCTTFNPTYDILTGYYIGGYFQHWGQGTMVTVSSGGGGSGGGGSGGGGSQSVLTQPASVSGSPGQSITISCTGTSSDVGGYNYVSWYQQHPGKAPKLMIYEGSKRPSGVSNRFSGSKSGNTASLTISGLQAEDEADYYCSSYTTRSTRVFGGGTQLTVLG
notes: also called 1061H01
- binding result (TRAIL): no binding
- binding result (Fas ligand): no binding
- binding result [1]: binds
- binding result (TNF-alpha): no binding
- binding result (TNF-beta): no binding
- binding result [2]: binds

B8: I007H08 (scFv)
scFv: QVQLQQSGPGLVKPSQILSLTCAISGDSVASNGAAWNWIRQSPSRGLEWLGRTYYRSKWYVDYAVSVKSRITINPDTSKNQFSLQLNSVTPEDTAVYYCARDRYDILTGYYYYGMDVWGQGTMVTVSSGGGGSGGGGSGGGGSQSALTQPASVSGSRGQSITISCTGTTGDVGGYDYVSWYQQHPGKAPKLLIYGNSNRPSGVPDRFSASKSGNTASLTISGLQAEDEADYFCNTYAPPGIIMFGGGTKLTVLG
- binding result (TRAIL): no binding
- binding result (Fas ligand): no binding
- binding result [1]: binds
- binding result (TNF-alpha): no binding
- binding result (TNF-beta): no binding
- binding result [2]: binds

B9: I008A11 (scFv)
scFv: QVQLQQSGPGLVKPSQILSLTCAISGDSVASNGAAWNWIRQSPSRGLEWLGRTYYRSKWYVDYAVSVKSRITINPDTSKNQFSLQLNSVTPEDTAVYYCARDRYDILTGYYYYGMDVWGQGTMVTVSSGGGGSGGGGSGGGGSQSALTQPASVSGSRGQSITISCTGTTGDVGGYDYVSWYQQHPGKAPKLLIYGNSNRPSGVPDRFSASKSGNTASLTISGLQAEDEADYFCSTYAPPGIIMFGGGTKLTVLG
- binding result (TRAIL): no binding
- binding result (Fas ligand): no binding
- binding result [1]: binds
- binding result (TNF-alpha): no binding
- binding result (TNF-beta): no binding
- binding result [2]: binds

B10: I006D08 (scFv)
scFv: QVQLQQSGAEVKKPGSSVRVSCKASGGTFNNNAINWVRQAPGQGLEWMGGIIPMFGTAKYSQNFQGRVAITADESTSTASMELSSLRSEDTAVYYCARSRDLLLFPHYGMDVWGRGTMVTVSSGGGGSGGGGSGGGGSAFSSELTQDPAVSVALGQTVRVTCQGDSLRSYYASWYQQKPGQAPVLVIYGKNNRPSGIPDRFSGSSSGNTASLTITGAQAEDEADYYCNSRDSSGNHWVFGGGTELTVLG
- binding result (TRAIL): no binding
- binding result (Fas ligand): no binding
- binding result [1]: binds
- binding result (TNF-alpha): no binding
- binding result (TNF-beta): no binding
- binding result [2]: binds

B11: I018C10 (scFv)
scFv: GVQLVQSGPEVKKPGASVKVSCTASGYTFTSYGVSWVRQAPGQGLEWIGWISAHNGQTKYAEKFQGRVTMTRNTSISTAYMELSSLRSEDTVVYYCARDGSYDILTGYYIDNYMDVWGKGTMVTVSSGGGGSGGGGSGGGGSSELTQDPAVSVALGQTVRITCQGDSLRSYYTNWFQQKPGQAPLLVVYAKNKRPSGIPDRFSGSSSGNTASLTITGAQAEDEADYYCHSRDSSGNHVLFGGGTKLTVLG
- binding result (TRAIL): no binding
- binding result (Fas ligand): no binding
- binding result [1]: binds
- binding result (TNF-alpha): no binding
- binding result (TNF-beta): no binding
- binding result [2]: binds

B12: I021B05 (scFv)
scFv: QVQQSGADVKKPGGSLRLSCAASGFTFSSYSMNWVRQAPGKGLEWVSSISSSSSYIYYADSVKGRFTISRDNAKNSLYLQMNSLRAEDTAVYYCAREGGNYDILTGYYIGNGAFDIWGRGTMVTVSSGGGGSGGGGSGGGGSQSVLTQPASVSGSPGQSITISCTGTSSDVGGYNYVSWYQQHPGKAPKLMIYEGSKRPSGVSNRFSGSKSGNTASLTISGLQAEDEADYYCSSYTTRSTRVFGGGTKLTVLG
- binding result (TRAIL): no binding
- binding result (Fas ligand): no binding
- binding result [1]: binds
- binding result (TNF-alpha): no binding
- binding result (TNF-beta): no binding
- binding result [2]: binds

B13: I026E03 (scFv)
scFv: EVQLVQSGGEVKRPGASVKVSCKASGYTFSRYGISWVRQAPGQGLEWMGWISAYNGKTSFAEKFQGRVTLTTDTSTTTVDMELRNLRSDDTAVYYCARTDYDILTGYPMGYFDPWGKGTLVTVSSGGGGSGGGGSGGGGSALSSELTQDPAVSVALGQTVKITCQGDSLRSFYAAWYQQKPGQAPILVISGKNNRPSGIPDRFSGSSSGNTASLTITGAQAEDEADYYCNSRDTSGNHYVFGAGTKLTVLG
- binding result (TRAIL): no binding
- binding result (Fas ligand): no binding
- binding result [1]: binds
- binding result (TNF-alpha): no binding
- binding result (TNF-beta): no binding
- binding result [2]: binds
